B1: Transmembrane gamma-carboxyglutamic acid protein 4 (Homo sapiens), Q9BZD6 (parent)
chain: MFTLLVLLSQLPTVTLGFPHCARGPKASKHAGEEVFTSKEEANFFIHRRLLYNRFDLELFTPGNLERECNEELCNYEEAREIFVDEDKTIAFWQEYSAKGPTTKSDGNREKIDVMGLLTGLIAAGVFLVIFGLLGYYLCITKCNRLQHPCSSAVYERGRHTPSIIFRRPEEAALSPLPPSVEDAGLPSYEQAVALTRKHSVSPPPPYPGHTKGFRVFKKSMSLPSH
B2: Transmembrane gamma-carboxyglutamic acid protein 4 (Homo sapiens), Q9BZD6 (parent)
chain: B1 chain
partner: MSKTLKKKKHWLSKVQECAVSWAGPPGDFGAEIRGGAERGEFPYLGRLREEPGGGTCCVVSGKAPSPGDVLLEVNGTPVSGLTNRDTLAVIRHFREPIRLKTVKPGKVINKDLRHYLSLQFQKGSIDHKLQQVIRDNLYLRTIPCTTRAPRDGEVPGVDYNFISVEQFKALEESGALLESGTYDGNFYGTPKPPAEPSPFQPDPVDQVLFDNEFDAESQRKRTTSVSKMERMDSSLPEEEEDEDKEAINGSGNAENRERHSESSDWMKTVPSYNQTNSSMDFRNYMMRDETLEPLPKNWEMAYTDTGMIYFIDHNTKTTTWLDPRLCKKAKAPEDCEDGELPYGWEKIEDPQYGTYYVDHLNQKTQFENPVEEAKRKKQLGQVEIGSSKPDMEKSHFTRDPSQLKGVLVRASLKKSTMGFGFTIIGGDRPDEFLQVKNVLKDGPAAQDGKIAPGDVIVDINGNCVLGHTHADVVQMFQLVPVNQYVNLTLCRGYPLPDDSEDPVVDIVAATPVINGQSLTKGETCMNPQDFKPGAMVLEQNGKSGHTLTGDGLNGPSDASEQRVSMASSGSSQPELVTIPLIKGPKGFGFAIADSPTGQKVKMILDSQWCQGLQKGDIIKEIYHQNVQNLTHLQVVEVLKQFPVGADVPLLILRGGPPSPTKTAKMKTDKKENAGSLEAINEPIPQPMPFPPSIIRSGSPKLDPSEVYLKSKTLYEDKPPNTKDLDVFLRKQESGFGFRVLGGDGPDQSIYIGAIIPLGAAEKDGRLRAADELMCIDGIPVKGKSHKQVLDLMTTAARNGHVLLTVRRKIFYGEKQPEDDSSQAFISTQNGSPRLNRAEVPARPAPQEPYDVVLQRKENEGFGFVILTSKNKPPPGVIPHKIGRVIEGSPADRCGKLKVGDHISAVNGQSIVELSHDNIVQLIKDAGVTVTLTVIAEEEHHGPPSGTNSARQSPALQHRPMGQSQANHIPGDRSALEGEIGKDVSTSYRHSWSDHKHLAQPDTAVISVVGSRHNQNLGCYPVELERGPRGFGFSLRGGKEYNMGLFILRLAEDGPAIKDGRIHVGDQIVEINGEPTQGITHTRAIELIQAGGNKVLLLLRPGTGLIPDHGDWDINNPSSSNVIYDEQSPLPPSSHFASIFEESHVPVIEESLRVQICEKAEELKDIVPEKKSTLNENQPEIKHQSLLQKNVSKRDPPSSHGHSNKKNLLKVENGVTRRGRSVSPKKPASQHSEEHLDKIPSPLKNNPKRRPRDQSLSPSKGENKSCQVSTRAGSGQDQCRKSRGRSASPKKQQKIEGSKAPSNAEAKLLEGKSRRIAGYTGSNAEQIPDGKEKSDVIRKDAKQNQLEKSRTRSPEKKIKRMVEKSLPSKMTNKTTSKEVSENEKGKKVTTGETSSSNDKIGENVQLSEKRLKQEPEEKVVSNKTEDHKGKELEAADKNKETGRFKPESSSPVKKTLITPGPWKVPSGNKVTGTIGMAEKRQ
B3: Transcriptional coactivator YAP1 (Homo sapiens), P46937-3 (parent)
chain: MDPGQQPPPQPAPQGQGQPPSQPPQGQGPPSGPGQPAPAATQAAPQAPPAGHQIVHVRGDSETDLEALFNAVMNPKTANVPQTVPMRLRKLPDSFFKPPEPKSHSRQASTDAGTAGALTPQHVRAHSSPASLQLGAVSPGTLTPTGVVSGPAATPTAQHLRQSSFEIPDDVPLPAGWEMAKTSSGQRYFLNHIDQTTTWQDPRKAMLSQMNVTAPTSPPVQQNMMNSASAMNQRISQSAPVKQPPPLAPQSPQGGVMGGSNSNQQQQMRLQQLQMEKERLRLKQQELLRQVRPQELALRSQLPTLEQDGGTQNPVSSPGMSQELRTMTTNSSDPFLNSGTYHSRDESTDSGLSMSSYSVPRTPDDFLNSVDEMDTGDTINQSTLPSQQNRFPDYLEAIPGTNVDLGTLEGDGMNIEGEELMPSLQEALSSDILNDMESVLAATKLDKESFLTWL
partner: B1 chain

Variants of: B1
Settings: with Magi1, Q6RHR9-1
Sequence of Magi1, Q6RHR9-1 (Q6RHR9 whole entry): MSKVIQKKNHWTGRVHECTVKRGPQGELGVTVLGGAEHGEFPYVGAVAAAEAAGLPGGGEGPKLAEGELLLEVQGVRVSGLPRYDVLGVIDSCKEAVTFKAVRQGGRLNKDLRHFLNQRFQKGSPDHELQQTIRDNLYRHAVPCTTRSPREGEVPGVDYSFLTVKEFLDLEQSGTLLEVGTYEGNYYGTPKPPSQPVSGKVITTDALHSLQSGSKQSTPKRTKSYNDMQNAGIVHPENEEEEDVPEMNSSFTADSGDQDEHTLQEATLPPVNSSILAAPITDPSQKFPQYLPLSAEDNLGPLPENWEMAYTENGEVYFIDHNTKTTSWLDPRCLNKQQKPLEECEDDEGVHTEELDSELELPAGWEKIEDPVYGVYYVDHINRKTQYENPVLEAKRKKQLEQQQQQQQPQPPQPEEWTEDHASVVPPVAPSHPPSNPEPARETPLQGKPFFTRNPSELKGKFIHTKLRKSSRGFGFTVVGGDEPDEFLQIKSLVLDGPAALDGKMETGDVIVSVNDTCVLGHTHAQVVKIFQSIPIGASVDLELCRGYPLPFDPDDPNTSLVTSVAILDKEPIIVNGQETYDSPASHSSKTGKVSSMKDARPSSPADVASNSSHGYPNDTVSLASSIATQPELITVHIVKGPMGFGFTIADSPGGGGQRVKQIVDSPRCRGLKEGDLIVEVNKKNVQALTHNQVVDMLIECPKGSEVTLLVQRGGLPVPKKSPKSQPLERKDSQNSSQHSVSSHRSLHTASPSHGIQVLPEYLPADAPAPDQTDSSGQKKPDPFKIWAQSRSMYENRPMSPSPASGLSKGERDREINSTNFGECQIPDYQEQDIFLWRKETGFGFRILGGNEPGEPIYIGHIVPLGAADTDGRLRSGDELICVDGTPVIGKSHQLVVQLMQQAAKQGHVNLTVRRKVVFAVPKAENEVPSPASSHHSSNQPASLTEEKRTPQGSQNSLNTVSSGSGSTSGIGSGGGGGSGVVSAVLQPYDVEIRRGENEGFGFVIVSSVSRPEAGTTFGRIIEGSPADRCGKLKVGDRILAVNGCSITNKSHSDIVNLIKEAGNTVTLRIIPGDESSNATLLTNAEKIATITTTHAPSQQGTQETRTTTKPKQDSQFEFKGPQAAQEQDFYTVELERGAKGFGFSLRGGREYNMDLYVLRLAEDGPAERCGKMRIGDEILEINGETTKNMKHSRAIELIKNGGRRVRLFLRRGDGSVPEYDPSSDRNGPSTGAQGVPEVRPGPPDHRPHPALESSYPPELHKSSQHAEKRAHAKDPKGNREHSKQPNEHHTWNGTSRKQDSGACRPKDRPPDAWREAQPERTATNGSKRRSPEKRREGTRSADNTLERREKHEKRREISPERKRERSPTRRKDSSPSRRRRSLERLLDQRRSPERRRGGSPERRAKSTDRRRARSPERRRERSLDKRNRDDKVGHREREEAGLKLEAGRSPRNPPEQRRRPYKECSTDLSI

| effect of a mutation on the interaction | Variant |
| --- | --- |
| disrupting interaction strength | Y189A |
| decreasing interaction strength | Y207A |

Variants of: B1
Settings: with wwtr1_human WWTR1, Q9GZV5
Sequence of wwtr1_human WWTR1, Q9GZV5 (Q9GZV5 whole entry): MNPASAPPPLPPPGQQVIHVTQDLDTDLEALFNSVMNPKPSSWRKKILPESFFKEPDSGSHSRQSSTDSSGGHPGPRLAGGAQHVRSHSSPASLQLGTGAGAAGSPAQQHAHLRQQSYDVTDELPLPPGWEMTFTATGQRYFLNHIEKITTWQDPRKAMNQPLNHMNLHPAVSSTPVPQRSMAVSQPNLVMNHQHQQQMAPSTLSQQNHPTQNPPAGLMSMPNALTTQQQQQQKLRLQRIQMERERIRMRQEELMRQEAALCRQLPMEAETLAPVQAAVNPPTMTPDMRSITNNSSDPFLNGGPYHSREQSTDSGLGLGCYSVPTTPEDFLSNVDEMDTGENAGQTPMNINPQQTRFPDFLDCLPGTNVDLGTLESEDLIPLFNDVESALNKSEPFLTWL

| effect of a mutation on the interaction | Variant |
| --- | --- |
| disrupting interaction strength | Y189A |
| with no effect | Y207A |

Variants of: B1
Settings: with YAP1, P46937-3

| effect of a mutation on the interaction | Variant |
| --- | --- |
| disrupting interaction strength | Y189A |
| with no effect | Y207A |

Variants of: B1
Settings: with ned4l_human NEDD4L

| effect of a mutation on the interaction | Variant |
| --- | --- |
| disrupting interaction strength | Y189A |
| with no effect | Y207A |

Variants of: B1
Settings: with nedd4_human NEDD4, P46934
Sequence of nedd4_human NEDD4, P46934 (P46934 whole entry): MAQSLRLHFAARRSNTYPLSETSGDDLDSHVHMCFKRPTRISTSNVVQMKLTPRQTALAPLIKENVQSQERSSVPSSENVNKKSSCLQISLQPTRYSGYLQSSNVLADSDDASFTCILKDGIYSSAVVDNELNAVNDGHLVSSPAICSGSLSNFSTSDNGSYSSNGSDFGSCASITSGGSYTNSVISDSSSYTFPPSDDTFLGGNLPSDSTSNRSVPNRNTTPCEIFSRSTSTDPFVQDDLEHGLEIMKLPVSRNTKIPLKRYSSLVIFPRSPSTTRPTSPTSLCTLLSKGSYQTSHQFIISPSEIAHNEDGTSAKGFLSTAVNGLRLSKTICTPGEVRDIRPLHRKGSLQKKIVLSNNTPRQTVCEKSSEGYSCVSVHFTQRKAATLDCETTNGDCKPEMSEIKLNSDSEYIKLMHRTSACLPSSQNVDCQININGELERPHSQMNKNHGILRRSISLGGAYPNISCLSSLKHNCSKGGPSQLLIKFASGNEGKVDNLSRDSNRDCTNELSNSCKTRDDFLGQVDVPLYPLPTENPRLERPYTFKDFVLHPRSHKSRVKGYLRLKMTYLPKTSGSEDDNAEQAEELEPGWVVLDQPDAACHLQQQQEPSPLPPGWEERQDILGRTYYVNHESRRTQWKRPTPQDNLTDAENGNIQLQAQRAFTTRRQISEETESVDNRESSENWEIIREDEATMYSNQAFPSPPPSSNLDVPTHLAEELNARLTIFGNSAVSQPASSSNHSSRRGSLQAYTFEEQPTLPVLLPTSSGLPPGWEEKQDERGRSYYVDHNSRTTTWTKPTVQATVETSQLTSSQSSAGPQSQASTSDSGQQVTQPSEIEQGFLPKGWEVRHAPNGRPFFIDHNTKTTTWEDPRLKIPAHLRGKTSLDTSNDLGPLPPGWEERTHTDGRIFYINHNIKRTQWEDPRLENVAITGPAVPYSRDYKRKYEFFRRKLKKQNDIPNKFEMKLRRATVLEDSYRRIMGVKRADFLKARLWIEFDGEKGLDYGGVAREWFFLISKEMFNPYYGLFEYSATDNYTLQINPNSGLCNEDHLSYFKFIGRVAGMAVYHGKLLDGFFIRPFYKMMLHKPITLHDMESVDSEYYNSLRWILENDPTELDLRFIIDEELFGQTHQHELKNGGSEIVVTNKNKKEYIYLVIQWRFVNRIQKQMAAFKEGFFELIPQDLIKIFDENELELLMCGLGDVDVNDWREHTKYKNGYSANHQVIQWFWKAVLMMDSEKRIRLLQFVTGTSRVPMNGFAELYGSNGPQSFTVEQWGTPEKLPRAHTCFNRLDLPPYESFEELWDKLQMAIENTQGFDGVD

| effect of a mutation on the interaction | Variant |
| --- | --- |
| disrupting interaction strength | Y189A |
| with no effect | Y207A |

Variants of: B2
Settings: with magi3_human MAGI3, Q5TCQ9

| effect of a mutation on the interaction | Variant |
| --- | --- |
| disrupting interaction strength | Y189A |
| with no effect | Y207A |

Variants of: B3
Settings: with tmg4_human PRRG4, Q9BZD6

| effect of a mutation on the interaction | Variant |
| --- | --- |
| with no effect | S127A |
| disrupting interaction strength | W199A;P202A |

— IntAct's records for PubMed 23873930
